{"source": "paper PMC11870076", "about": "“Multiple carbamylation events are required for differential modulation of Cx26 hemichannels and gap junctions by CO2” (The Journal of Physiology, 2025)", "proteins": {"B1": {"name": "chicken connexin 26 (GgCx26) gap junction channel (natural protein)", "chain": "not shown", "notes": "DNA encoding GgCx26 lacking a stop codon was amplified from a GgCx26-mCherry construct, forward primer at the start ATG; in the model residues before Val9, 106-124 and after Leu215 are not built; Dodecameric gap junction channel (two docked hexamers); thrombin-cleavable C-terminal His6 tag removed with thrombin before SEC; also called chicken Cx26; Chicken (Gallus gallus) Cx26; source: Sf9 cells …"}}, "molecular_target": "the molecule itself", "assay": "cryo-EM structure; GgCx26 in 0.03% DDM, 90 mmHg PCO2 aCSF buffer gassed with 15% CO2 to pH ~7.4, 3.4 mg/ml; reconstructions with D6 and C6 symmetry", "data": [{"protein": "B1", "values": [{"measurement": "stoichiometry N", "value": 12, "unit": "subunits"}]}]}
